The values that follow come from US20150126713A1.

Experiment [1] concerns the target monkey IL-23R-mouse Fc fusion protein (monkey; mouse). The experiment can be described thus: antigen ELISA, monkey IL-23R-mouse Fc immobilized, HRP anti-human IgG, chemiluminescence. Background: An ELISA detects its analyte on a solid surface through an enzyme-linked reagent.
The target in experiment [2] is human IL-23R on Kit-225 cells (human) (UniProt Q5VWK5). Nature of the experiment: cell-based or functional assay.
Experiment [3] concerns the target human IL-23R-mouse Fc fusion protein (human; mouse) (UniProt Q5VWK5). The experiment can be described thus: antigen ELISA, human IL-23R-mouse Fc immobilized, HRP anti-human IgG, chemiluminescence.

Sequence of human IL-23R on Kit-225 cells (human) (Q5VWK5 24-629 L310P limits assumed): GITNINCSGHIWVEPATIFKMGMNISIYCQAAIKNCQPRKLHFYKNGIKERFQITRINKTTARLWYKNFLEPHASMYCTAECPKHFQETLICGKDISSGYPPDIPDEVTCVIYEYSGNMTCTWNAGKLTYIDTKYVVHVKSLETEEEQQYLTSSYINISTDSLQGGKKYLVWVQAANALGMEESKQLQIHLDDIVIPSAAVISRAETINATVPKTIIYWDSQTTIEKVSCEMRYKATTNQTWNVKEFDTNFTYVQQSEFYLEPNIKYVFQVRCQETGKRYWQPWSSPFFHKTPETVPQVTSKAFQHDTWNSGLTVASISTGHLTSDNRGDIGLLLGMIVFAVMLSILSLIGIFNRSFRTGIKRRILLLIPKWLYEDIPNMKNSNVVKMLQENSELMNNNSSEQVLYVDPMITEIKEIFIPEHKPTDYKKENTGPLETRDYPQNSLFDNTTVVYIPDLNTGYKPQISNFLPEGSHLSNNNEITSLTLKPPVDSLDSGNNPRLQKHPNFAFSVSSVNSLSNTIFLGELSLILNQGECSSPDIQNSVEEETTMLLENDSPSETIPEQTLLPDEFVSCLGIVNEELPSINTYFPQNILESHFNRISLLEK
Sequence of human IL-23R-mouse Fc fusion protein (human; mouse) (Q5VWK5 24-353 L310P limits assumed): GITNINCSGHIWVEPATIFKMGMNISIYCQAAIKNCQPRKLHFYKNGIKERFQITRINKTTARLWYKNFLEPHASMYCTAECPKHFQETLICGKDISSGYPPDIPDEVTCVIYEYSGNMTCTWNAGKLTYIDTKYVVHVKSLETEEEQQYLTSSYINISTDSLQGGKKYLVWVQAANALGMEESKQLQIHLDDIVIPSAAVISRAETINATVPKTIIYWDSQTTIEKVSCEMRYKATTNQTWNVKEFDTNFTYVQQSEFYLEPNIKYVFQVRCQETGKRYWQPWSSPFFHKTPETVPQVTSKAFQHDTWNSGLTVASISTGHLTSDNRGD

B1: hum20D7 (antibody, from another filing, V domains shown)
VH: QVQLVQSGAEVKKPGASVKVSCKASGYTFTNYAMNWVRQAPGQGLEWMGWINTYTGEPTYSDDFKGRVTFTLDTSTSTAYMELRSLRSDDTAVYYCARGGGYDEDYFDYWGQGTLVTVSS
VL: DIVMTQSPLSLPVTPGEPASISCKSSQSLFNTINQKTYLAWYLQKPGQSPQLLIYFASTRESGVPDRFSGSGSGTDFTLKISRVEAEDVGVYYCQQHYDTPWTFGQGTKVEIKR
With B1, the EC50 in experiment [1] is over 10 µg/mL; in experiment [3] it was 0.0452 µg/mL. Moreover, in experiment [2], the Human IL-23-inducible Kit-225 cell proliferation inhibitory activity, IC50 was 0.0276 µg/mL.

The EC50 is the midpoint of the concentration-response curve.
